Experimental data reported in doi:10.1101/723213 (bioRxiv, 2019).

B6: CENP-C_(1264-1411) (tag cleaved) (domain or fragment, Drosophila melanogaster, UniProt Q9VHP9 1264-1411, looked up)
chain: GPVVFSTPLRDEQEEASTKLMQWLRGVGDAPPSASMSDENASVSSANELIFCQVDGIDYAFYNTKEKAMLGYMRFKPYQKRSMKQAKVHPLKLLVQFGEFNVETLAVGEEKEVHSVLRVGDMIEIDRGTRYSIQNAIDKVSVLMCIRS

How the values were obtained:
His-CAL1_(1-160) = target: T1, His-CAL1_(1-160) (Drosophila melanogaster, UniProt Q9VEN2 1-160); experiment: crystal structure
T1 sequence (looked up): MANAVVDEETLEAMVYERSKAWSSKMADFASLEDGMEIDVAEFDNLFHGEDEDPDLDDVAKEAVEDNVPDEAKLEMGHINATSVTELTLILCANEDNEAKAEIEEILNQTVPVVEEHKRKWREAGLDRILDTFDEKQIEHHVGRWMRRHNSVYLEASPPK

Histone H4 = Histone H4 (Drosophila melanogaster, UniProt P84040 2-103); experiment: crystal structure
[1] = target: B6; experiment: AUC
CENP-A-GFP-LacI = target: T2, CENP-A-GFP-LacI (Drosophila melanogaster, UniProt Q9V6Q2 1-225); experiment: LacO/LacI tethering assay in cells
T2 sequence (looked up): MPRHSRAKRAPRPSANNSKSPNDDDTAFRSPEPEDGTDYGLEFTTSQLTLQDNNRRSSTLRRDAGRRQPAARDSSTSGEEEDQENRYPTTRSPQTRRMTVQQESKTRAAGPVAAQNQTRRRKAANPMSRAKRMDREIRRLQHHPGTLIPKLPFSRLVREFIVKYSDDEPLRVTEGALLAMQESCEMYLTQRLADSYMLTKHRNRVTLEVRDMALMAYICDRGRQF

[2] = target: T3, CENP-A_(101-225)–H4 heterodimer (Drosophila melanogaster, UniProt Q9V6Q2 101-225; P84040 2-103); experiment: pull-down
[3] = target: T3, CENP-A_(101-225)–H4 heterodimer; experiment: SEC-MALS
SEC-MALS = target: the molecule itself; experiment: SEC-MALS

B1: CENP-A_(101-225) (domain or fragment)
chain: QQESKTRAAGPVAAQNQTRRRKAANPMSRAKRMDREIRRLQHHPGTLIPKLPFSRLVREFIVKYSDDEPLRVTEGALLAMQESCEMYLTQRLADSYMLTKHRNRVTLEVRDMALMAYICDRGRQF
B1: binds (His-CAL1_(1-160)); binds (Histone H4).

B2: CAL1_(841-979) (untagged) (domain or fragment, Drosophila melanogaster, UniProt Q9VEN2 841-979, looked up)
chain: GGDPDCTVVTSTTGCEPPASERQEIPATIKITKRGILLHSPSAPEGASFTLTEQGLGKIIGERWARKYLKYHIGSRSFDSRHSVYYQPTPQLAAALSAPQDAQNIGNISGSSASDDDIFEQINRYGTVYSILENNSGDK
For B2, the “stoichiometry N” value [1] was 1 CAL1 per CENP-C dimer.

B3: CAL1_(F43R)-V5 (natural protein, Drosophila melanogaster, UniProt Q9VEN2 1-979, looked up)
chain: MANAVVDEETLEAMVYERSKAWSSKMADFASLEDGMEIDVAERDNLFHGEDEDPDLDDVAKEAVEDNVPDEAKLEMGHINATSVTELTLILCANEDNEAKAEIEEILNQTVPVVEEHKRKWREAGLDRILDTFDEKQIEHHVGRWMRRHNSVYLEASPPKYLPPHHNSISDESDESMHSIDTARYIQQSRRRNAHMTNKNMTTIKMYRKHSHKRDELRAKYAYGDEQEHRHHMQAVLLRRRERERQLAYLASTPMQCVYSSGHHMRRKNLRKRRINSWMFDSASSSEEDTSFGGCDCHSCRRHYALSRSVYQSCPYGRGQREYHHRQMASRTMHTMRRQHTFDMEMDLRPRLPENECSCCNSDRLCSNVIHIANSSTEEWVVENRSNHLTQETQEKTRKQKHQPMDARKVSHQPVCSKGHEQKPLSSKATSVSKLVLSKEKYMQMFDSESSDEDNALAKKGLLCCSDKKKGMTFPTPNAAGKITHPTSSAKKAIRKEARPNGLAQIQEEGPTATNSPIESTYLPVAHMKSVSIDGSSGTSATFESPAKKAPKRGIRETSPLNGNELQQLISTIPIADEKASSLMEKVDNCIGRESFDDRNKDFMHMENSSTKTAVEKSTKQKRVSGKKSEIPKSIITNNEILEKNSTETLSEKQVAAKAKKQSVRKTGATGKPSTSRLKKSEKTKTTSSVTSTSKLEQVREEESDVSSEVLAKPKPQCSTTASILKQGGDGASNSEDDLQIALAMSKATYKEEQQKRKKTKREPSNKQPQSPAEKSMTVFNNQSVACNSTALANDTACYRVLPKRRGVKRAAAVSTTEEKTATNSSSSPTSSLEEMGSPTGGDPDCTVVTSTTGCEPPASERQEIPATIKITKRGILLHSPSAPEGASFTLTEQGLGKIIGERWARKYLKYHIGSRSFDSRHSVYYQPTPQLAAALSAPQDAQNIGNISGSSASDDDIFEQINRYGTVYSILENNSGDK
With B3 the “fold reduction of the level co-localising with CENP-A, against CAL1 WT” value (CENP-A-GFP-LacI) was 3 fold.

B4: His-CAL1_(1-160) F43R (domain or fragment)
chain: MANAVVDEETLEAMVYERSKAWSSKMADFASLEDGMEIDVAERDNLFHGEDEDPDLDDVAKEAVEDNVPDEAKLEMGHINATSVTELTLILCANEDNEAKAEIEEILNQTVPVVEEHKRKWREAGLDRILDTFDEKQIEHHVGRWMRRHNSVYLEASPPK
B4: binds [2].

B5: His-CAL1_(1-50) (domain or fragment)
chain: MANAVVDEETLEAMVYERSKAWSSKMADFASLEDGMEIDVAEFDNLFHGE
In the case of B5, the “stoichiometry N” value [3] is reported as 1 CAL1 per CENP-A/H4 heterodimer.

In the case of B6, the “stoichiometry N” value (SEC-MALS) is reported as 2.
